Results on five sequences are retold here after PMC3764172.

The target of this data set is T1, PGN_0753 (HaeR) response regulator, His6-tagged (Porphyromonas gingivalis ATCC 33277) (UniProt B2RIS7).
T1 sequence: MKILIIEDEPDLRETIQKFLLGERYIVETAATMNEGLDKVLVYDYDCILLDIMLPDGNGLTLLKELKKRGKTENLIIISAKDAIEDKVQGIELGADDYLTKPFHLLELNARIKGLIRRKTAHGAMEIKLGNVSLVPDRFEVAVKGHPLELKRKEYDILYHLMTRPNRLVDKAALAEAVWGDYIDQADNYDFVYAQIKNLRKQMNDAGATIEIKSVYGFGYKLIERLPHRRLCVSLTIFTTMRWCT
Briefly: EMSA. A general note: A gel shift assay detects complexes by their altered migration in electrophoresis.

For “TAGCGTCATTCTTTTCATAGACTTTTCTTTTGCGTTAAACTTAAAATTATTACTGTTATGTTGTTTTCTTTTCTTCTCCGGTTTTACCCTAACCAAGGGAAGTCTCAAAAAGCCGCTACCGGCGTTAGACACAAGTCACGAAACTTCCACAACTGTCCTATGATACGGACAGCCACAAAACTAAATAAAAAAATGCAACCAGACTAATCCTATTATCC (double strand) [ragA (PGN_0293) promoter]”, the binding entry is reported as “binds”.

“CATTTTGATGAAATTAGAATATGATTTTACTGTGTAGTACCCCTTCTGTATTTATGCATTATAAAGTCTTCTTGGGAGACAAAATTCACATAGAAACCGAAAGAAATACCACAATCGCAAATATATGCACTTTTCCTTTAAACGCGAATCAAAATATGCATAATATATTGCCCAAAAGCTGTCATTCGGATTGATTGATGGCCTCATATTGGGTTTGCA (double strand) [rgpA (PGN_1970) promoter]”: the binding result is recorded as “binds”.

As for “TAAGTGATTGAAAGACTTCGTTTGCTGAGATTCGAGCAAATCGTCTTGGGACAAAGATATAAAAAAGTGCCACCGAATTTGCACCTCGTCCCCAAAACACAGGCGTAAAATATCCGCACATCCCGGGACTGCAAAGGGAGAGCATGCTATTTCAGGAAAAATTCAGTTTTACCATGTTATATTTGTAAAAGAAGATCAATCCAAACAGGGCTATCCAGATG (double strand) [haeR (PGN_0753) promoter]”, the binding entry was “binds”.

For “CCCTTGTCGCTTATATTGAAAACATGTTCTTTATAATCCGATACTCTTCTTAAATCGAATTTTTTCTCTAAATTGCGCCGCAACAAAACTCCTTGAGAAAAGTACCAATAGAAATAGAAGGTAGCATTTTGCCTTTAAATTCCTTTTCTTTTCTTGGATTGTTCTTGAAATGAATCTTATTTGTGGATCTTTTTTGTTTTTTTAACCCGGCCGTGGTTCTCTGAATCACGACCATAAATTGTTTTAAAGT (double strand) [kgp (PGN_1728) promoter]”, the binding result is “binds”.

For “CGTATCCGGGTTATACGATCTGTCGTTTGGATATTGAAAATCATTTCTATCGGAACTATACGCTCCATATCGGTGCGGAGAACCTGTTCGATTATAAACCCAAAGCATTGGCATTCAATTCCCCGACATCACCCGGACGTATCATATACGGGTTGGTTCGGATCACTTTCTAATACGACTTATTTGCAACAGAAATATAATTCGCCACG (double strand) [hmuS upstream region]”, the binding entry is “binds”.
